# Results reported in PMC5397363 (Molecular microbiology, 2017).
# Where a chain is given by its changes, count along the chain named.
# B1: G21A (protein)
# chain: MITVDITVNDEGKVTDVIMDAHADHGEYGHDIVCAGASAVLFGSVNAIIGLTSERPDINYDDNGGHFHIRSVDTNNDEAQLILQTMLVSLQTIEEEYNENIRLNYK
# modifications: left off: His6, N-terminal, cleaved | SUMO, N-terminal, cleaved
# B2: H22A (protein)
# chain: B1 chain with A21G, H22A
# modifications: left off: His6, N-terminal, cleaved | SUMO, N-terminal, cleaved
# B3: D31A (protein)
# chain: B1 chain with A21G, D31A
# modifications: left off: His6, N-terminal, cleaved | SUMO, N-terminal, cleaved
# B4: S38A (protein)
# chain: B1 chain with A21G, S38A
# modifications: left off: His6, N-terminal, cleaved | SUMO, N-terminal, cleaved
# Tested on: fluorogenic substrate
# Assay type: biochemical, Staphylococcus aureus
# Conditions: 2.0 μM fluorogenic substrate; for measureable activity of mutant enzyme: enzyme 21.38 nM (dimer), n ≥ 3
Molecule,measureable activity of mutant enzyme,activity relative to the wild-type enzyme (enzyme 213.8 nM) [%]
B1,none,
B2,none,
B3,none,
B4,none,2.1 ± 0.2
